Experiments:
[1] = target: HLA-DR(α1*0101,α1*1501) (human); experiment: reference IC50 of the tracer peptide in the HLA class II competition assay
[2] = target: HLA-DR(α1*0101,α1*1101) (human); experiment: as above
[3] = target: HLA-DR(α1*0101,α1*0701) (human); experiment: competition assay on purified HLA; tracer YKL
[4] = target: HLA-DR(α1*0101,α4*0101) (human); experiment: competition assay on purified HLA; tracer E2/E168
[5] = target: HLA-DR(α1*0101,α1*0301) (human); experiment: competition assay on purified HLA; tracer MT (2-16)
[6] = target: HLA-DR(α1*0101,α1*1301) (human); experiment: competition assay on purified HLA; tracer B1 (21-36)
[7] = target: HLA-DR(α1*0101,α1*1501) (human); experiment: competition assay on purified HLA; tracer A3 (152-166)
[8] = target: HLA-DR(α1*0101,α1*0401) (human); experiment: competition assay on purified HLA; tracer HA (307-319)
[9] = target: HLA-DR(α1*0101,α1*1101) (human); experiment: as above
[10] = target: HLA-DR(α1*0101,α5*0101) (human); experiment: as above
[11] = target: DP (α1*0101, α1*0402) (human); experiment: competition assay on purified HLA; tracer bOxy 271-287
[12] = target: HLA-DP(α1*0101,α1*0401) (human); experiment: as above
[13] = target: HLA-DR(α1*0101,α3*0101) (human); experiment: competition assay on purified HLA; tracer LOL (191-210)
[14] = target: DP401=HLA-DP(α1*0101,α1*0401) (human); experiment: HLA class II competition binding assay, biotinylated tracer peptide
[15] = target: DP402=HLA-DR(α1*0101,α1*0402) (human); experiment: as above
[16] = target: DR11=HLA-DR(α1*0101,α1*1101) (human); experiment: as above
[17] = target: DR13=HLA-DR(α1*0101,α1*1301) (human); experiment: as above
[18] = target: DR15=HLA-DR(α1*0101,α1*1501) (human); experiment: as above
[19] = target: DR3=HLA-DR(α1*0101,α1*0301) (human); experiment: as above
[20] = target: DR4=HLA-DR(α1*0101,α1*0401) (human); experiment: as above
[21] = target: DR7=HLA-DR(α1*0101,α1*0701) (human); experiment: as above
[22] = target: DRB3=HLA-DR(α1*0101,α3*0101) (human); experiment: as above
[23] = target: DRB4=HLA-DR(α1*0101,α4*0101) (human); experiment: as above
[24] = target: DRB5=HLA-DR(α1*0101,α5*0101) (human); experiment: as above
[25] = target: HLA-DR(α1*0101,α1*0101) (human); experiment: competition assay on purified HLA; tracer HA (307-319)
[26] = target: DR1=HLA-DR(α1*0101,α1*0101) (human); experiment: HLA class II competition binding assay, biotinylated tracer peptide

Substance	IC50 [3]	IC50 [4]	IC50 [5]	IC50 [6]	IC50 [7]	IC50 [8]	IC50 [9]	IC50 [10]	IC50 [11]	IC50 [12]	IC50 [13]	IC50 [15]	IC50 [16]	IC50 [18]	IC50 [19]	IC50 [20]	IC50 [21]	IC50 [22]	IC50 [23]	IC50 [24]	also measured
A3 (152-166) (peptide)																					IC50 [1]: 0.013 µM
HA (307-319) (peptide)																					IC50 [2]: 0.052 µM
HSV1 29 (gD1-23) (peptide)	0.894 µM	52.5 µM	0.12 µM	> 100 µM	24.5 µM	0.082 µM	5.25 µM	0.008 µM	1.63 µM	17.6 µM	1.4 µM	1.63 µM	5.25 µM	24.5 µM	0.12 µM	0.082 µM	0.894 µM	1.4 µM	52.5 µM	0.008 µM	IC50 [14]: 17.6 µM; IC50 [17]: > 100 µM
HSV1 33 (gD121-152) (peptide)	0.019 µM	0.319 µM	0.066 µM		0.002 µM	0.008 µM	0.289 µM	0.134 µM	0.065 µM	0.083 µM	0.226 µM	0.065 µM	0.289 µM	0.002 µM	0.066 µM	0.006 µM	0.019 µM	0.226 µM	0.319 µM	0.134 µM	IC50 [25]: 0.053 µM; IC50 [14]: 0.083 µM; IC50 [26]: 0.053 µM
HSV1 35 (gD287-317) (peptide)		3.26 µM	19.5 µM	> 100 µM	6.79 µM	0.6 µM	25 µM	4.5 µM	> 100 µM	> 100 µM	5 µM	> 100 µM	25 µM	6.79 µM	19.5 µM	0.6 µM		5 µM	3.26 µM	4.5 µM	IC50 [25]: 3.16 µM; IC50 [14]: > 100 µM; IC50 [17]: > 100 µM; IC50 [26]: 3.16 µM
HSV1 37 (gD200-234) (peptide)	0.2 µM	3.74 µM	0.307 µM	2.05 µM	0.013 µM	0.04 µM	0.044 µM	0.068 µM	0.167 µM		0.041 µM	0.167 µM	0.044 µM	0.013 µM	0.307 µM	0.04 µM	0.2 µM	0.041 µM	3.74 µM	0.068 µM	IC50 [25]: 0.004 µM; IC50 [17]: 2.05 µM; IC50 [26]: 0.004 µM
HSV1 39 (gD332-358) (peptide)	0.274 µM	0.703 µM			0.95 µM	5.87 µM	0.005 µM	0.031 µM	> 100 µM		2.31 µM	> 100 µM	0.005 µM	0.95 µM		5.87 µM	0.274 µM	2.31 µM	0.703 µM	0.031 µM	

— patent publication US20080299140A1, “Immunogenic Composition and Peptide Sequences for Prevention and Treatment of an Hsv Condition” (priority 2002, published 2008)
